Key:
Experiment in all cases: cell-based or functional assay
PLCβ3-Δ892 ΔXY2 = target: T1, PLCβ3-Δ892 ΔXY2 (Homo sapiens, UniProt Q01970 10-892, ΔXY2 (residues 471–584))
T1 sequence (looked up): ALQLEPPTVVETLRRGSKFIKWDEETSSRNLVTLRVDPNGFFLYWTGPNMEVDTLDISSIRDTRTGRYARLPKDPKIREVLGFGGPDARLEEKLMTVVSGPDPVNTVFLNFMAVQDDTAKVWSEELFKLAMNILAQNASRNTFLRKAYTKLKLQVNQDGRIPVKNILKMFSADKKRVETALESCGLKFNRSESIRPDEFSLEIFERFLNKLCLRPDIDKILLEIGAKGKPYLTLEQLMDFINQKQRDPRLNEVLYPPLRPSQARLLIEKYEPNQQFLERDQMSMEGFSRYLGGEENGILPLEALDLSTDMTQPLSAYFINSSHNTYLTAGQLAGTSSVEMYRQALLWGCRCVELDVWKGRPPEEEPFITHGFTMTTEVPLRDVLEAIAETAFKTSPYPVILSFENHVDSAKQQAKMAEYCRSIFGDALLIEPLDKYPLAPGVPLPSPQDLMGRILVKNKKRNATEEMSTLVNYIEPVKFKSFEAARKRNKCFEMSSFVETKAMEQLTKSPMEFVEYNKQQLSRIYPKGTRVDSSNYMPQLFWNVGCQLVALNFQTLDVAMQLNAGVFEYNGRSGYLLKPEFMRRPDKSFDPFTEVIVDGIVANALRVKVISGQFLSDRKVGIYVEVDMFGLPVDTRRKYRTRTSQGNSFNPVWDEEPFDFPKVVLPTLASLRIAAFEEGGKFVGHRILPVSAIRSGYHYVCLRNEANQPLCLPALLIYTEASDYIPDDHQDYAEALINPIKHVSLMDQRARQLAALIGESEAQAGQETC

[1] = target: T2, Homo sapiens PLCβ3 (residues 10–1234) (Homo sapiens, UniProt Q01970 10-1234)
T2 sequence (looked up): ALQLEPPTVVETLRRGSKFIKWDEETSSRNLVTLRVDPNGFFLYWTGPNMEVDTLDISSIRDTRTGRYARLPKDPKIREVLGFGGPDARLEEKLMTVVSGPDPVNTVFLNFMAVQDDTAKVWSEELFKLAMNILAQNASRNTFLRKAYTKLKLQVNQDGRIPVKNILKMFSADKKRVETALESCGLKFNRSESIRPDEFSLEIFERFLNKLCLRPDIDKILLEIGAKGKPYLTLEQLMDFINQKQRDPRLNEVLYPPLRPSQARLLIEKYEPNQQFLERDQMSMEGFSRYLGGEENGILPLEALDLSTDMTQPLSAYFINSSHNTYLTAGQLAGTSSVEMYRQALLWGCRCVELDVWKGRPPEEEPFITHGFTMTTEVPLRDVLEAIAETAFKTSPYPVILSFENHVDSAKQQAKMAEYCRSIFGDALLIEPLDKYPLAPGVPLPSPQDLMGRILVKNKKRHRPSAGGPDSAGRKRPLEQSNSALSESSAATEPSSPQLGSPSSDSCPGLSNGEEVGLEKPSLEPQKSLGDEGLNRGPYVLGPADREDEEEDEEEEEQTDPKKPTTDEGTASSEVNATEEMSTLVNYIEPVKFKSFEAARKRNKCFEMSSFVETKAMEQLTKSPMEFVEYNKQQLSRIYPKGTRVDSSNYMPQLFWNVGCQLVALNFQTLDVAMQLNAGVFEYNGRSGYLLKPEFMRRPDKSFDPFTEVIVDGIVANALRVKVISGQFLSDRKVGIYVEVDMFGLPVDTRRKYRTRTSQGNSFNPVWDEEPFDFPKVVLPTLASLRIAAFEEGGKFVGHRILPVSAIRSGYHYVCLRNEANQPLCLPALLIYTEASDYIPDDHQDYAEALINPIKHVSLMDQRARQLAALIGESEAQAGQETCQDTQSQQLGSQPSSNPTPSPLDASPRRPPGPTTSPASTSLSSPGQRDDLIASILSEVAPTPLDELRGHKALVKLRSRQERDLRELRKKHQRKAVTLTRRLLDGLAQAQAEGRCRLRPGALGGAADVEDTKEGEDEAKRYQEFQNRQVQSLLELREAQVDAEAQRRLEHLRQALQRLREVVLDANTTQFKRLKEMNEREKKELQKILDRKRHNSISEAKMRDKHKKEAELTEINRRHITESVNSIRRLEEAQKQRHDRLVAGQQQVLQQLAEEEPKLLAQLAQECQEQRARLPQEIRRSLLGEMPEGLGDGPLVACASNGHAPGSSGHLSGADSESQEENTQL

[2] = target: T3, PLCβ3-Δ892 (residues 10–892) (Homo sapiens, UniProt Q01970 10-892)
T3 sequence (looked up): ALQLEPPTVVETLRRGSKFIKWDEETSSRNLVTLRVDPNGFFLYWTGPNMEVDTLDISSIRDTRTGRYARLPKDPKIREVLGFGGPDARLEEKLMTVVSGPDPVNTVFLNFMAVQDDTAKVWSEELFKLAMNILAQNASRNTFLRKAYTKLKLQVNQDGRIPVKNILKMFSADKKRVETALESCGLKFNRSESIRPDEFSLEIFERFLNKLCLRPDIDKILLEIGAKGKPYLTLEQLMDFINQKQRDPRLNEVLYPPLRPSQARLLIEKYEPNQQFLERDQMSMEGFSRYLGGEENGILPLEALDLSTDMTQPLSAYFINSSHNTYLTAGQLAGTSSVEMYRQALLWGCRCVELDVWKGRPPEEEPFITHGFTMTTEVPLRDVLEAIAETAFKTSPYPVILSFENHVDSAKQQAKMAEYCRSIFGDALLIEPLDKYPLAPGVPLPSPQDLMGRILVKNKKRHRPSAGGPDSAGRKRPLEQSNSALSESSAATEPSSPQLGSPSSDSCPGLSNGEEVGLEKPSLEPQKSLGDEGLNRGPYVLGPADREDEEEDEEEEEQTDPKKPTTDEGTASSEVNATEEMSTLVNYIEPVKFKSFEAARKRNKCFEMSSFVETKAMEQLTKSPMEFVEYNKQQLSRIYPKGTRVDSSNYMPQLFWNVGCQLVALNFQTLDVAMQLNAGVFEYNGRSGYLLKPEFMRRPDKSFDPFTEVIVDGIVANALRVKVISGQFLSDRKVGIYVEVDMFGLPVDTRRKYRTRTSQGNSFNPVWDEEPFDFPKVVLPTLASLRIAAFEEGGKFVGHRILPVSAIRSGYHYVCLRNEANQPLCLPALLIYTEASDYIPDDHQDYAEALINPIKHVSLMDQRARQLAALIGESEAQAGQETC

x-fold maximum activity over basal (complex against the PLCβ3 variant alone) (PLCβ3-Δ892 ΔXY2): 3 x-fold
x-fold maximum activity over basal (complex against the PLCβ3 variant alone) [1]: 8 x-fold
x-fold maximum activity over basal (complex against the PLCβ3 variant alone) [2]: 22 x-fold
B1: Activated Gαq (Gαq·GDP-ALF4^−) (natural protein, murine, UniProt P21279 7-359, looked up)
chain: MACCLSEEAKEARRINDEIERQLRRDKRDARRELKLLLLGTGESGKSTFIKQMRIIHGSGYSDEDKRGFTKLVYQNIFTAMQAMIRAMDTLKIPYKYEHNKAHAQLVREVDVEKVSAFENPYVDAIKSLWNDPGIQECYDRRREYQLSDSTKYYLNDLDRVADPSYLPTQQDVLRVRVPTTGIIEYPFDLQSVIFRMVDVGGQRSERRKWIHCFENVTSIMFLVALSEYDQVLVESDNENRMEESKALFRTIITYPWFQNSSVILFLNKKDLLEEKIMYSHLVDYFPEYDGPQRDAQAAREFILKMFVDLNPDSDKIIYSHFTCATDTENIRFVFAAVKDTILQLNLKEYNLV

Source: article PMC7885793 (Biochemistry, 2019)
